Key:
[1] = biological target: T1, nitric oxide sensitive guanylyl cyclase β1-subunit with carboxy-terminal Strep Tag II (UniProt P20595 1-619); experiment: pull-down; co-purification: α1 variant expressed with carboxy-terminally Strep Tag II tagged β1 in Sf-9; cytosolic fraction applied to Strep-Tactin Superflow resin; buffer W 100 mM Tris-HCl, 1 M NaCl, 1 mM EDTA, 1 mM benzamidine, 10 mM DTT, pH 8.0; eluted with 2.5 mM D-desthiobiotin; on ice or at 4°C; SDS-PAGE, Coomassie staining, densitometry; cells also cultured without supplement, with hemin (4 mg/l), or with …; conditions: partners not purified
T1 construct: β1-subunit of nitric oxide sensitive guanylyl cyclase; PvuI/StuI fragment of the conjoined construct β1α1-Strep [27] in pFastBac1; predicted 72.2 kDa with tag; also called Strep tagged β1-subunit; source: Sf-9, recombinant baculovirus, cytosolic fraction; purified on Strep-Tactin Superflow; not shown: Strep Tag II, C-terminal, kept
T1 sequence (looked up): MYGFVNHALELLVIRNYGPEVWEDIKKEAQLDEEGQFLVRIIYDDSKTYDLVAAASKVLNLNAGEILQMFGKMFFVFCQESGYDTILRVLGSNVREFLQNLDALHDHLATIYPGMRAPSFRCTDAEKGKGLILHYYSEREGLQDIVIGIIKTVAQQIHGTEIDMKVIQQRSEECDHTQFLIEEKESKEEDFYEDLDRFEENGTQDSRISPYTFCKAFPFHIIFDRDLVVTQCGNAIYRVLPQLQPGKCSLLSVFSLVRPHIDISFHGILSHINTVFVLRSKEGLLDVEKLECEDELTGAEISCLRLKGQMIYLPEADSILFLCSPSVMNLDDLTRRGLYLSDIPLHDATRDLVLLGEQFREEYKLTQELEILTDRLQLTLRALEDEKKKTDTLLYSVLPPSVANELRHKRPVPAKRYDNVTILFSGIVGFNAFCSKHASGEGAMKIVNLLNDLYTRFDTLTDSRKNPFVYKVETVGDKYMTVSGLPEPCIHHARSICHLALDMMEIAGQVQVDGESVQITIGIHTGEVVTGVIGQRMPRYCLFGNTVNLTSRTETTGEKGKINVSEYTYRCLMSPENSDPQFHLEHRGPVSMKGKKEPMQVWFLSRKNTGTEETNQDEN

[2] = biological target: T2, nitric oxide sensitive guanylyl cyclase β1-subunit with carboxy-terminal Strep Tag II, P20595; experiment: pull-down; co-purification: α1 variant expressed with carboxy-terminally Strep Tag II tagged β1 in Sf-9; cytosolic fraction applied to Strep-Tactin Superflow resin; buffer W 100 mM Tris-HCl, 1 M NaCl, 1 mM EDTA, 1 mM benzamidine, 10 mM DTT, pH 8.0; eluted with 2.5 mM D-desthiobiotin; on ice or at …
T2 chain: T1 sequence (looked up)

B1: C-α1 splice variant of the nitric oxide sensitive guanylyl cyclase α1-subunit (human α1ΔN259) (domain or fragment, UniProt Q02108-1 259-690, looked up)
chain: MKSTKPSLSPSKPQSSLVIPTSLFCKTFPFHFMFDKDMTILQFGNGIRRLMNRRDFQGKPNFEEYFEILTPKINQTFSGIMTMLNMQFVVRVRRWDNSVKKSSRVMDLKGQMIYIVESSAILFLGSPCVDRLEDFTGRGLYLSDIPIHNALRDVVLIGEQARAQDGLKKRLGKLKATLEQAHQALEEEKKKTVDLLCSIFPCEVAQQLWQGQVVQAKKFSNVTMLFSDIVGFTAICSQCSPLQVITMLNALYTRFDQQCGELDVYKVETIGDAYCVAGGLHKESDTHAVQIALMALKMMELSDEVMSPHGEPIKMRIGLHSGSVFAGVVGVKMPRYCLFGNNVTLANKFESCSVPRKINVSPTTYRLLKDCPGFVFTPRSREELPPNFPSEIPGICHFLDAYQQGTNSKPCFQKKDVEDGNANFLGKASGID
notes: α1-subunit of nitric oxide sensitive guanylyl cyclase, human, amino-terminal deletion α1ΔN259; predicted 48 kDa; The name ΔN259 could also be read as loss of the first 259 residues; also called C-α1-splice form; source: Sf-9, recombinant baculovirus, cytosolic fraction; co-purified with β1-S on Strep-Tactin
Question: Which results are given for B1?
Answer: ratio of band intensities of the α1 variant to β1 [1]: 0.75; relative heterodimerization by densitometry (% of α1WT) [2]: 166.2 % (±12.2 %)

B2: nitric oxide sensitive guanylyl cyclase α1-subunit, wild type (human) (natural protein, UniProt Q02108-1 1-690, looked up)
chain: MFCTKLKDLKITGECPFSLLAPGQVPNESSEEAAGSSESCKATVPICQDIPEKNIQESLPQRKTSRSRVYLHTLAESICKLIFPEFERLNVALQRTLAKHKIKESRKSLEREDFEKTIAEQAVAAGVPVEVIKESLGEEVFKICYEEDENILGVVGGTLKDFLNSFSTLLKQSSHCQEAGKRGRLEDASILCLDKEDDFLHVYYFFPKRTTSLILPGIIKAAAHVLYETEVEVSLMPPCFHNDCSEFVNQPYLLYSVHMKSTKPSLSPSKPQSSLVIPTSLFCKTFPFHFMFDKDMTILQFGNGIRRLMNRRDFQGKPNFEEYFEILTPKINQTFSGIMTMLNMQFVVRVRRWDNSVKKSSRVMDLKGQMIYIVESSAILFLGSPCVDRLEDFTGRGLYLSDIPIHNALRDVVLIGEQARAQDGLKKRLGKLKATLEQAHQALEEEKKKTVDLLCSIFPCEVAQQLWQGQVVQAKKFSNVTMLFSDIVGFTAICSQCSPLQVITMLNALYTRFDQQCGELDVYKVETIGDAYCVAGGLHKESDTHAVQIALMALKMMELSDEVMSPHGEPIKMRIGLHSGSVFAGVVGVKMPRYCLFGNNVTLANKFESCSVPRKINVSPTTYRLLKDCPGFVFTPRSREELPPNFPSEIPGICHFLDAYQQGTNSKPCFQKKDVEDGNANFLGKASGID
notes: predicted 77.6 kDa; also called α1WT; α1 full-length; source: Sf-9, recombinant baculovirus, cytosolic fraction; co-purified with β1-S on Strep-Tactin
Question: For B2, which “ratio of band intensities of the α1 variant to β1” value [1] is on record?
Answer: Its value is 0.43.
